Data as given in article PMC4838387, “PolDIP2 interacts with human PrimPol and enhances its DNA polymerase activities”.
Values belong to the binder of their own block, whether it stands above or below them.

Assays:
[1] = biological target: T1, PrimPol24-354 (AEP catalytic domain) (human, UniProt Q96LW4 24-354); test: EMSA; PrimPol 0.05-1 uM, 10 mM Mg2+, no PolDIP2; EMSA: 10 mM Bis-Tris-propane-HCl pH 7.0, 10 mM MgCl2, 100 uM DTT, 20 nM DNA; 5% native PAGE, 0.5x TBE; binding temperature not stated; settings: protein: recombinant; label: 5'-HEX on primer; 3'-biotin on template; 20 bp duplex; template 5' overhang 77 nt
T1 sequence: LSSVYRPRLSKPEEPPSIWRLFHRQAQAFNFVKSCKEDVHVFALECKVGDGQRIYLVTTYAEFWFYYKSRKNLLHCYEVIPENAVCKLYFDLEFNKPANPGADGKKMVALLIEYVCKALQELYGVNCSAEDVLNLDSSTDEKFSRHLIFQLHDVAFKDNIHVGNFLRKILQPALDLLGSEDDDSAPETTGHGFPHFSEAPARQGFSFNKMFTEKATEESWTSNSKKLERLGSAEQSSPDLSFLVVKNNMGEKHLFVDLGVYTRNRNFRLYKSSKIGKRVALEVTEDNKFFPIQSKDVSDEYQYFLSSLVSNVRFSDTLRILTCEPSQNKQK

PolDIP2 (untagged) = biological target: T2, PolDIP2 (untagged) (UniProt Q9Y2S7 1-368); test: EMSA; PolDIP2 alone (100 nM in Fig 2A), 10 mM Mg2+; EMSA: 10 mM Bis-Tris-propane-HCl pH 7.0, 10 mM MgCl2, 100 uM DTT, 20 nM DNA; 5% native PAGE, 0.5x TBE; binding temperature not stated; settings: protein: recombinant; tags: none (GST cleaved with PreScission protease); label: 5'-HEX on primer; 3'-biotin on template; 20 bp duplex; template 5' overhang 77 nt
T2 sequence: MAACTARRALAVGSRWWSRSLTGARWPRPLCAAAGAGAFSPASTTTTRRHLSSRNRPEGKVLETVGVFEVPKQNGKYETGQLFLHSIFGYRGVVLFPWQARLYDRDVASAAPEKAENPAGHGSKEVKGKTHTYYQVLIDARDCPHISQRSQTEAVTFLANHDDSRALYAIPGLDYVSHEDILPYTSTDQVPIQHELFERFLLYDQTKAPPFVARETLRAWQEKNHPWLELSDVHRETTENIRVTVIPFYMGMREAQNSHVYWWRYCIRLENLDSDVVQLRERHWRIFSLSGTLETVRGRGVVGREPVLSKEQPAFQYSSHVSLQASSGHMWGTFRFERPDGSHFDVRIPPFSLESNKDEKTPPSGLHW

PrimPol^1–354 (human) = biological target: T3, PrimPol^1–354 (human) (UniProt Q96LW4)
T3 sequence: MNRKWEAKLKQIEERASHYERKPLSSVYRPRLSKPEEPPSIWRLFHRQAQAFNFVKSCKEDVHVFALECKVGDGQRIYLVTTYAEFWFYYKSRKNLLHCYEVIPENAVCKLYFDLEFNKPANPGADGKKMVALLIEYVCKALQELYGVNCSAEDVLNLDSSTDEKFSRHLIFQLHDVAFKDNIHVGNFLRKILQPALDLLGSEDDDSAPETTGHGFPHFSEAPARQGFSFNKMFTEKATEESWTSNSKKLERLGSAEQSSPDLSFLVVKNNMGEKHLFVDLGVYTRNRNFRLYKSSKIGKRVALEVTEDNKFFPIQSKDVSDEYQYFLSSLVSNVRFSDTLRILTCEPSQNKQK

[2] = biological target: T4, full-length human PrimPol (human) (UniProt Q96LW4)
T4 sequence: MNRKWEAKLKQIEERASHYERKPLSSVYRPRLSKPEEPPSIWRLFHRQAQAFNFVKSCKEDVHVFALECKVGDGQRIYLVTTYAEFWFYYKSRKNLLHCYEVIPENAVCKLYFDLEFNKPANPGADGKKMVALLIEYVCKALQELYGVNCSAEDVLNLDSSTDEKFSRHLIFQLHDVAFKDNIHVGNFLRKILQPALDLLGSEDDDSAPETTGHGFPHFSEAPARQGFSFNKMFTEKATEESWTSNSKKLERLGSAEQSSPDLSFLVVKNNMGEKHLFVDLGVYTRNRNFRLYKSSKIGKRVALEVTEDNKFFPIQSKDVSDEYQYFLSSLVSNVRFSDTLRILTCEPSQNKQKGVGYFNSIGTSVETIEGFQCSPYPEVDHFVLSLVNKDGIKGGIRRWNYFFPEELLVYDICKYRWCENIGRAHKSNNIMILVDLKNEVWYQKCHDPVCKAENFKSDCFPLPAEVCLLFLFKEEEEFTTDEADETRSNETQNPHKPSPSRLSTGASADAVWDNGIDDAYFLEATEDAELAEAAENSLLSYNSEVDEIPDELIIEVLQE

B1: 20/97-mer primer/template (HP-20 / ND-97) (mixed)
DNA 1: TGTCGTCTGTTCGGTCGTTC
DNA 2: ACCGCGAACTTGAATTCTAGTTCAGTCTAAATGCTCTCAAGCACTGAGCAATTCACAACATATGGCTTTCGATTACCGAACGACCGAACAGACGACA
binding result [1]: binds | binding result (PolDIP2 (untagged)): no binding

K half of the stimulation of primer extension by PrimPol 1-354 (20 nM) on 20/50-mer DNA, GST-PolDIP2 0-120 nM (PrimPol^1–354 (human)): 33.9 nM | K half of the stimulation of primer extension by PrimPol (20 nM) on 20/50-mer DNA, GST-PolDIP2 0-120 nM [2]: 41 nM
B2: GST-PolDIP2 (natural protein)
chain: SSRNRPEGKVLETVGVFEVPKQNGKYETGQLFLHSIFGYRGVVLFPWQARLYDRDVASAAPEKAENPAGHGSKEVKGKTHTYYQVLIDARDCPHISQRSQTEAVTFLANHDDSRALYAIPGLDYVSHEDILPYTSTDQVPIQHELFERFLLYDQTKAPPFVARETLRAWQEKNHPWLELSDVHRETTENIRVTVIPFYMGMREAQNSHVYWWRYCIRLENLDSDVVQLRERHWRIFSLSGTLETVRGRGVVGREPVLSKEQPAFQYSSHVSLQASSGHMWGTFRFERPDGSHFDVRIPPFSLESNKDEKTPPSGLHW
